From IntAct's records for PubMed 31515488 come the findings set out here.

Sequences and labels used below:
B1: Notch homolog 2 N-terminal-like protein A (Homo sapiens), Q7Z3S9 (parent)
chain: MCVTYHNGTGYCKCPEGFLGEYCQHRDPCEKNRCQNGGTCVAQAMLGKATCRCASGFTGEDCQYSTSHPCFVSRPCLNGGTCHMLSRDTYECTCQVGFTGKECQWTDACLSHPCANGSTCTTVANQFSCKCLTGFTGQKCETDVNECDIPGHCQHGGTCLNLPGSYQCQCLQGFTGQYCDSLYVPCAPSPCVNGGTCRQTGDFTFECNCLPETVRRGTELWERDREVWNGKEHDEN
partner: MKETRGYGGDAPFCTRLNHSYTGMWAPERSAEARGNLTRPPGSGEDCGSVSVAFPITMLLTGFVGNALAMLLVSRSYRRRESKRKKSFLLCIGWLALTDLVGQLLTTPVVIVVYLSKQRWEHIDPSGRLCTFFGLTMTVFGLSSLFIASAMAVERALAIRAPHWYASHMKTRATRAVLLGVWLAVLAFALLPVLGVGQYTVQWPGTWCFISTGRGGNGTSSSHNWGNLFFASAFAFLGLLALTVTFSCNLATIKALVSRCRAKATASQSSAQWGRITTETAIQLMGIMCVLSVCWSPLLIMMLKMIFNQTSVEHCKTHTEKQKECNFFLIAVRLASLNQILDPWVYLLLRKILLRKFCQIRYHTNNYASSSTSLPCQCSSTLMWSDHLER
B2: Centrin-1 (Homo sapiens), Q12798 (parent)
chain: MASGFKKPSAASTGQKRKVAPKPELTEDQKQEVREAFDLFDVDGSGTIDAKELKVAMRALGFEPRKEEMKKMISEVDREGTGKISFNDFLAVMTQKMSEKDTKEEILKAFRLFDDDETGKISFKNLKRVANELGENLTDEELQEMIDEADRDGDGEVNEEEFLRIMKKTSLY
partner: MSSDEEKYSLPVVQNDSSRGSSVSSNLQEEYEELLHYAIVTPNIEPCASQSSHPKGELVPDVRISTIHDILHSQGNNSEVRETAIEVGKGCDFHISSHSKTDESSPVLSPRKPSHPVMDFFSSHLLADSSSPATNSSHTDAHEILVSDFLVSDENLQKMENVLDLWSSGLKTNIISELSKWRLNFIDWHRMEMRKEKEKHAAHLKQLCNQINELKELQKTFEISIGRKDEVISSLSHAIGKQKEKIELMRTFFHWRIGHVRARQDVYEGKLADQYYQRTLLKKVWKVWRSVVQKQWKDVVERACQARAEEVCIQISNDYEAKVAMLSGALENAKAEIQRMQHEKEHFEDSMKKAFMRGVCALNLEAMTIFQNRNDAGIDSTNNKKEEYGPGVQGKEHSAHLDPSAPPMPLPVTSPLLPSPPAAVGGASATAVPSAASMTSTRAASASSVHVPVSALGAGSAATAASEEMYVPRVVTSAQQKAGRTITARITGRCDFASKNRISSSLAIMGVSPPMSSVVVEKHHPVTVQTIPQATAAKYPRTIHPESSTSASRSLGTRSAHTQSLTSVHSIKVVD
B3: Four and a half LIM domains protein 2 (Homo sapiens), Q14192 (parent)
chain: MTERFDCHHCNESLFGKKYILREESPYCVVCFETLFANTCEECGKPIGCDCKDLSYKDRHWHEACFHCSQCRNSLVDKPFAAKEDQLLCTDCYSNEYSSKCQECKKTIMPGTRKMEYKGSSWHETCFICHRCQQPIGTKSFIPKDNQNFCVPCYEKQHAMQCVQCKKPITTGGVTYREQPWHKECFVCTACRKQLSGQRFTARDDFAYCLNCFCDLYAKKCAGCTNPISGLGGTKYISFEERQWHNDCFNCKKCSLSLVGRGFLTERDDILCPDCGKDI
partner: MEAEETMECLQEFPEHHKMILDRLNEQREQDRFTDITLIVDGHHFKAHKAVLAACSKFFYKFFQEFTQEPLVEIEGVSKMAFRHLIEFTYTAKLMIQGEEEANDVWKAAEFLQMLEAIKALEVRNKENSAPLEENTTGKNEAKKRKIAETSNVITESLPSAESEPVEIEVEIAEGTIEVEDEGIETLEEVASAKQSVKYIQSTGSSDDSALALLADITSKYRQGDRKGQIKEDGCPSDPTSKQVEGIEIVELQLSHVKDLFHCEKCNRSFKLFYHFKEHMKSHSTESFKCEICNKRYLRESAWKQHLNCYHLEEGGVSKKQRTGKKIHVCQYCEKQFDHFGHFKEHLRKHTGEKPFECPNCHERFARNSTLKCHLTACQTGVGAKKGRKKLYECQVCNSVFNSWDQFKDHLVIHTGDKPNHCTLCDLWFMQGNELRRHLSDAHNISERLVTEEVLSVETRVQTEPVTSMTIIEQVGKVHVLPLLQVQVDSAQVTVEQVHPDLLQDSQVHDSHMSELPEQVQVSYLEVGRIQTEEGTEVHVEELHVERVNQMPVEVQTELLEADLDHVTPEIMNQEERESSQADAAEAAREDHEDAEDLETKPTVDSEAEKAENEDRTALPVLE

In the first test the parent is B1. The conditions noted are these: with pe2r3_human PTGER3, P43115.
As to A115T, the “effect of a mutation on the interaction” value is “with no effect”. Still for that read-out and setting: as for R74Q, the entry is “with no effect”.

In another test the parent is B2. Conditions: with poc5_human POC5, Q8NA72.
Turning to M72T, the “effect of a mutation on the interaction” value is recorded as “with no effect”.

Variants of B3 are the subject of the next test. Conditions: with zn131_human ZNF131, P52739.
Take N95K: the “effect of a mutation on the interaction” value is reported as “with no effect”. On the same count and under the same terms, as for A37S, the entry is “with no effect”.
